{
  "source": "patent US20170369592A1",
  "about": "“NOVEL ANTI-FIBROBLAST ACTIVATION PROTEIN (FAP) ANTIBODIES AND USES DERIVED THEREOF” (Mabimmune Diagnostics AG, priority 2015, published 2017)",
  "molecules": {"B1": {"name": "NI-206.22F7: recombinant human-derived monoclonal anti-FAP antibody, variable regions in FIG. 1 (antibody, V domains shown)", "VH": "EVQLVETGGGVVQPGRSLRLSCAASGFSFSTHGMYWVRQPPGKGLEWVAVISYDGSDKKYADSVKGRFTISRDNSKNTVYLEMSSVRAEDTALYYCFCRRDAFDLWGQGTMVTVSS", "VL": "SYVLTQPPSVSVSPGQTARITCSGDALPKKYAYWYQQKSGQAPVLVIYEDTKRPSGIPERFSGSSSGTMATLTISGAQVEDEADYYCYSTDSSGNYWVFGGGTEVTVL"}},
  "key": {"[1]": {"tested_on": "metastatic colorectal cancer", "conditions": "unconjugated antibody, early phase II trial; cited from earlier work"}, "FAP": {"molecular_target": "T1, FAP (Homo sapiens, UniProt Q12884)", "T1 sequence (Q12884 1-760)": "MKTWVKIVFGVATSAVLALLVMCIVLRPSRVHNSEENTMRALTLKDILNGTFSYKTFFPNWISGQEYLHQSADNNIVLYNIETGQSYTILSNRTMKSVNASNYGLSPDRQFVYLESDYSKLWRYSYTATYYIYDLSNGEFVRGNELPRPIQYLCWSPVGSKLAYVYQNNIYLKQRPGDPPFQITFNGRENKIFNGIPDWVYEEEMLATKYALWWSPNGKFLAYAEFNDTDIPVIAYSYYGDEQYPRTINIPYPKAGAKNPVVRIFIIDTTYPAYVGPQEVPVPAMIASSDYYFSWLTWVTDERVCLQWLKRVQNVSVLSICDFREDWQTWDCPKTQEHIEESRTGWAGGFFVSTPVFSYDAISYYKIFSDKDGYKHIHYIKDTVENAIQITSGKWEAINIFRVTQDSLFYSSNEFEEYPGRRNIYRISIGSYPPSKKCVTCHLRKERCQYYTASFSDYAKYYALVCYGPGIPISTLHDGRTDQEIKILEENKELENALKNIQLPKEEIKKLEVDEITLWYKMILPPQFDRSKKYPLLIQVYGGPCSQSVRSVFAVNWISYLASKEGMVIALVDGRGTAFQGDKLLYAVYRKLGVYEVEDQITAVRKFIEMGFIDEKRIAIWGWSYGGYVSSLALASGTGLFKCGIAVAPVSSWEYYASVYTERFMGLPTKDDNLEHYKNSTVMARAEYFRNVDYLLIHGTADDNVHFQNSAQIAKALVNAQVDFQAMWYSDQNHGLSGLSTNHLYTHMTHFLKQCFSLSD", "conditions": "cited from earlier work"}, "[2]": {"conditions": "human, in vivo; cited from earlier work"}, "[3]": {"molecular_target": "T2, directly coated FAP (FAP) (Homo sapiens, UniProt Q12884)", "T2 sequence (Q12884 1-760)": "T1 sequence (Q12884 1-760)", "test": "Direct ELISA, FAP directly coated", "format": "binding", "conditions": "non-linear regression", "experimental": "(§1) ELISA assays were performed with varying antibody concentrations to validate the binding of the exemplary antibodies of the present invention to FAP and to be able to determine their half maximal effective concentration (EC50). For the exemplary recombinant human NI-206.82C2, NI-206.59B4, NI-206.22F7, NI-206.27E8, NI-206.12G4 and NI-206.17A6 antibodies, 96-well microplates (Costar, Corning, USA) were coated with FAP, with a mixture of the 3 peptides or with BSA (Sigma-Aldrich, Buchs, Switzerland) diluted to a concentration of 5 μg/ml in carbonate ELISA coating buffer (15 mM Na2CO3, 35 mM NaHCO3, pH 9.4) for the direct ELISA. For the capture ELISA, the microplates were coated with mouse anti-His monoclonal antibody (Clontech) diluted to a concentration of 3 μg/ml in PBS, the plates were then blocked, FAP or BSA were diluted to a concentration of 2 μg/ml in PBS and added to the plates to be captured. The binding efficiency of the antibodies was then tested. The exemplary NI-206.82C2 antibody specifically and strongly binds to the captured FAP and less efficiently to the directly coated FAP. The exemplary NI-206.59B4 antibody specifically, strongly and similarly binds to the captured FAP and to the directly coated FAP.\n(§2) The EC50 values were estimated by a non-linear regression using GraphPad Prism (San Diego, USA) software. […] The binding of NI-206.12G4 towards sFAP was not tested."}, "captured FAP (sFAP)": {"molecular_target": "T3, captured FAP (sFAP) (Homo sapiens, UniProt Q12884)", "T3 sequence (Q12884 1-760)": "T1 sequence (Q12884 1-760)", "test": "Capture ELISA, FAP captured via his-tag with coated anti-His antibody", "format": "binding", "conditions": "non-linear regression", "experimental": "as §1, §2"}},
  "data": [
    {"molecule": "Sibrotuzumab: a humanized version of the F19 antibody that specifically binds to human FAP", "values": [
      {"measurement": "efficacy in inhibiting tumor progression", "setting": "[1]", "value": "lack of efficacy"},
      {"measurement": "inhibition of FAP", "setting": "FAP", "value": "not inhibitory"},
      {"measurement": "patients with a change in pharmacokinetics and reduced tumor uptake", "setting": "[2]", "value": "4 of 26"}
    ]},
    {"molecule": "B1", "values": [
      {"measurement": "EC50, binding to directly coated FAP (FAP)", "setting": "[3]", "value": "did not show any binding"},
      {"measurement": "EC50, binding to captured FAP (sFAP)", "setting": "captured FAP (sFAP)", "value": "did not show any binding"}
    ]}
  ]
}
